Test results reported in patent publication US20180258158A1 (Bristol-Myers Squibb, published 2018).
Numbering of substitutions follows the chain as printed. In names and notes the source's numbering stands.

B1: ADX_6727_A07 (Y44S/K85T) (designed binder)
chain: MGVSDVPRDLEVVAATPTSLLISWDAPAVTVRYYRITYGREVQKYSDLGPLYISQEFTVPGSKSTATISGLKPGVDYTITVYAVTGSGESPASSTPISINYRTEIDKPSQHHHHHH
notes: Full His6-tagged entry
B2: ADX_6727_F07 (Y44S/K85A) (designed binder)
chain: B1 chain with T95A
notes: Full His6-tagged entry
B3: ADX_6727_F10 (Y35A/K85T) (designed binder)
chain: B1 chain with Y45A, S54Y
notes: Full His6-tagged entry
B4: ADX_6727_G04 (Y44S/K85S) (designed binder)
chain: B1 chain with T95S
notes: Full His6-tagged entry
B5: ADX_6727_G01 (L41A) (designed binder)
chain: B1 chain with L51A, S54Y, T95K
notes: Full His6-tagged entry
B6: ADX_6727_B01 (K85S) (designed binder)
chain: B1 chain with S54Y, T95S
notes: Full His6-tagged entry
B7: ADX_6727_D06 (Y44A/K85S) (designed binder)
chain: B1 chain with S54A, T95S
notes: Full His6-tagged entry
B8: ADX_6727_C03 (Y35S) (designed binder)
chain: B1 chain with Y45S, S54Y, T95K
notes: Full His6-tagged entry
B9: ADX_6727_D01 (K85T) (designed binder)
chain: B1 chain with S54Y
notes: Full His6-tagged entry
B10: ADX_6727_D02 (R30N) (designed binder)
chain: B1 chain with R40N, S54Y, T95K
notes: Full His6-tagged entry
B11: ADX_6727_D10 (Q33D/K85T) (designed binder)
chain: B1 chain with Q43D, S54Y
notes: Full His6-tagged entry
B12: ADX_6727_G05 (I43S/K85A) (designed binder)
chain: B1 chain with I53S, S54Y, T95A
notes: Full His6-tagged entry
B13: ADX_6727_F06 (L41A/K85T) (designed binder)
chain: B1 chain with L51A, S54Y
notes: Full His6-tagged entry
B14: ADX_6727_H02 (I43S) (designed binder)
chain: B1 chain with I53S, S54Y, T95K
notes: Full His6-tagged entry
B15: ADX_6727_B05 (I43S/K85T) (designed binder)
chain: B1 chain with I53S, S54Y
notes: Full His6-tagged entry
B16: ADX_6727_B11 (Q33D/K85S) (designed binder)
chain: B1 chain with Q43D, S54Y, T95S
notes: Full His6-tagged entry
B17: ADX_6727_F03 (I43Y as printed in Table 4; I43A in Table 7) (designed binder)
chain: B1 chain with I53A, S54Y, T95K
notes: Full His6-tagged entry
B18: ADX_6727_F04 (Y44A/K85A) (designed binder)
chain: B1 chain with S54A, T95A
notes: Full His6-tagged entry
B19: ADX_6727_C01 (K85A) (designed binder)
chain: B1 chain with S54Y, T95A
notes: Full His6-tagged entry
B20: ADX_6727_C07 (R30A/K85S) (designed binder)
chain: B1 chain with R40A, S54Y, T95S
notes: Full His6-tagged entry

Molecular target: T1, human serum albumin (HSA), full length (human, UniProt P02768 25-609)
T1 construct: mature; Immobilized on CM5 chip (SPR) or coated on plates (ELISA)
Test: SPR, immobilized HSA, 500 nM Adnectin, 25 C
Method: (§1) Measurements were conducted by SPR and ELISA. SPR was conducted as follows. Full length HSA or mouse albumin was immobilized on a Biacore T series CM5 chip at 15 ug/mL in 10 mM acetate buffer (pH 5.0) buffer using standard NHS/EDC coupling, to a surface density of approximately 1000-1100 RU. For off-rate measurements at 25° C., PKE Adnectins were applied as analytes at 500 nM in HBS-P+(0.01 M HEPES pH 7.4, 0.15 M NaCl, 0.005% v/v Surfactant P20) running buffer at a flow rate of 20ul/min for 120 s over the immobilized albumins, followed by 800 s for dissociation. […] Regeneration of the chip surface between cycles was accomplished with two 30 second pulses of 10 mM Glycine, pH 2.0. Kinetic traces of reference-subtracted sensorgrams were fit to a 1:1 binding model for affinity using the Biaevaluation software. Only the dissociation phase was fit for determination of off-rates.

T1 sequence (P02768 25-609): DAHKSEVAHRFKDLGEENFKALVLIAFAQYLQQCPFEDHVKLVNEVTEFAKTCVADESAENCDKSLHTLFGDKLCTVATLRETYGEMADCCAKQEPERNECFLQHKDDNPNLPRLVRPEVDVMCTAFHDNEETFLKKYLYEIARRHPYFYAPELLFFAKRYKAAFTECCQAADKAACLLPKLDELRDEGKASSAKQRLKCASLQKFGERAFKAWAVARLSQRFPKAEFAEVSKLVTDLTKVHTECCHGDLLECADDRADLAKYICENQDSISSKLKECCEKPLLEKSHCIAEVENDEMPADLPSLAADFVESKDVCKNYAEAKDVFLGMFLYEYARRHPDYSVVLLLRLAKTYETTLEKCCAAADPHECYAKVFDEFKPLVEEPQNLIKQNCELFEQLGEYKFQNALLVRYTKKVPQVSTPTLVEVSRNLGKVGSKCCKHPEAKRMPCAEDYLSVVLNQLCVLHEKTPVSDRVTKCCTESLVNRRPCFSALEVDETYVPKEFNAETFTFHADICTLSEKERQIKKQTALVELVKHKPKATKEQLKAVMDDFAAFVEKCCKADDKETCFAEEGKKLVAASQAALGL

HSA Binding (RU)	Binder
28 RU	B1
35 RU	B2
22 RU	B3
28 RU	B4

Molecular target: T2, mouse serum albumin (MSA), full length (mouse, UniProt P07724 25-608)
T2 construct: mature; Immobilized on CM5 chip (SPR) or coated on plates (ELISA); also called mouse albumin; murine serum albumin
Test: SPR, immobilized MSA, 500 nM Adnectin, 25 C
Method: as §1

MSA Binding (RU)	Binder
56 RU	B1
62 RU	B2
55 RU	B3
56 RU	B4

Molecular target: T1, human serum albumin (HSA), full length
Test: direct binding ELISA, coated HSA, anti-His-HRP
Set-up: unit not given here
Method: (§2) Direct binding ELISA assays were conducted as follows. Full length human and murine serum albumin at 10ug/ml in PBS were coated on Nunc Maxisorp plates overnight at 4° C. Plates were blocked in casein/PBS buffer. PKE Adnectins were allowed to bind over a 4-point concentration range of 0.032-4 uM for HSA and 0.008-1 uM for MSA. Bound Adnectin was detected by anti-His antibody conjugated with HRP (horseradish peroxidase) diluted 1:1500 in casein/PBS. Plates were developed with TMB substrate and absorbance read at 450 nm. Adnectins were binned as high, medium and low affinity binders based on the observed Ymax of the concentration response curves.

HSA DB ELISA (OD450) Ymax obs	HSA DB ELISA (OD450) Ymin obs	Binder
79	12	B5
97	94	B6
67	8	B7
99	31	B8
97	88	B9
99	20	B10
19	2	B11
38	2	B12
90	19	B13
37	2	B14
60	4	B15
12	1	B16
89	9	B17
56	6	B18
98	88	B19
100	44	B20

Molecular target: T2, mouse serum albumin (MSA), full length
Test: direct binding ELISA, coated MSA, anti-His-HRP
Set-up: unit not given here
Method: as §2

MSA DB ELISA (OD450) Ymax obs	MSA DB ELISA (OD450) Ymin obs	Binder
87	3	B5
91	88	B6
85	1	B7
95	23	B8
91	88	B9
93	17	B10
42	1	B11
32	1	B12
91	4	B13
39	1	B14
63	2	B15
11	1	B16
67	2	B17
77	2	B18
93	90	B19
94	6	B20

Molecular target: T1, human serum albumin (HSA), full length
Test: SPR off-rate ratio to parent ADX_7016_A01, HSA, 25 C
Method: as §1

HSA kd/Parent kd	Binder
14	B5
1.2	B6
20	B7
4	B8
1	B9
5	B10
50	B11
53	B12
11	B13
52	B14
28	B15
56	B16
17	B17
23	B18
1.1	B19
8	B20

Molecular target: T2, mouse serum albumin (MSA), full length
Test: SPR off-rate ratio to parent ADX_7016_A01, MSA, 25 C
Method: as §1

MSA kd/Parent kd	Binder
14.9	B5
1.2	B6
14.5	B7
2.8	B8
1	B9
2.8	B10
142	B11
27	B12
12.8	B13
22.8	B14
18.2	B15
8.9	B17
16.2	B18
1.2	B19
7.8	B20

Molecular target: T1, human serum albumin (HSA), full length
Test: SPR off-rate, immobilized HSA, 500 nM Adnectin, 25 C
Method: as §1

koff	Binder
0.0037 s⁻¹	B5
0.000321 s⁻¹	B6
0.00546 s⁻¹	B7
0.00107 s⁻¹	B8
0.000259 s⁻¹	B9
0.00135 s⁻¹	B10
0.0134 s⁻¹	B11
0.0143 s⁻¹	B12
0.00298 s⁻¹	B13
0.0139 s⁻¹	B14
0.00749 s⁻¹	B15
0.0151 s⁻¹	B16
0.00468 s⁻¹	B17
0.00624 s⁻¹	B18
0.000297 s⁻¹	B19
0.00218 s⁻¹	B20

Molecular target: T2, mouse serum albumin (MSA), full length
Test: SPR off-rate, immobilized MSA, 500 nM Adnectin, 25 C
Method: as §1

koff	Binder
0.00639 s⁻¹	B5
0.000501 s⁻¹	B6
0.00622 s⁻¹	B7
0.00121 s⁻¹	B8
0.000433 s⁻¹	B9
0.00118 s⁻¹	B10
0.0608 s⁻¹	B11
0.0116 s⁻¹	B12
0.0055 s⁻¹	B13
0.00977 s⁻¹	B14
0.00781 s⁻¹	B15
0.0038 s⁻¹	B17
0.00694 s⁻¹	B18
0.000509 s⁻¹	B19
0.00334 s⁻¹	B20

Molecular target: T1, human serum albumin (HSA), full length
Test: SPR off-rate ratio to parent ADX_7016_A01, HSA, 25 C
Remark: another data set of the same source
Method: as §1

HSA kd/Parent kd	Binder
4.8	B1
6.5	B2
4	B3
6.6	B4

Molecular target: T2, mouse serum albumin (MSA), full length
Test: SPR off-rate ratio to parent ADX_7016_A01, MSA, 25 C
Remark: another data set of the same source
Method: as §1

MSA kd/Parent kd	Binder
5.2	B1
6.5	B2
3.6	B3
6	B4

Molecular target: T1, human serum albumin (HSA), full length
Test: SPR off-rate, immobilized HSA, 500 nM Adnectin, 25 C
Remark: another data set of the same source
Method: as §1

koff	Binder
0.00129 s⁻¹	B1
0.00176 s⁻¹	B2
0.00109 s⁻¹	B3
0.00177 s⁻¹	B4

Molecular target: T2, mouse serum albumin (MSA), full length
Test: SPR off-rate, immobilized MSA, 500 nM Adnectin, 25 C
Remark: another data set of the same source
Method: as §1

koff	Binder
0.00222 s⁻¹	B1
0.00277 s⁻¹	B2
0.00156 s⁻¹	B3
0.00259 s⁻¹	B4
